Measurements reported in article PMC5374406, “The Phosphorylation of PDX-1 by Protein Kinase CK2 Is Crucial for Its Stability” (Pharmaceuticals, 2016).

Assays:
[1] = target: PCIF1 (endogenous, MIN6) (UniProt Q6ZWS8); assay: Duolink proximity ligation assay; details: reference: DMSO, sites T231,S232
[2] = target: PCIF1 (human; SPOP) (UniProt O43791); assay: GST pull-down, 35S autoradiography; details: sites T231,S232
[3] = target: T1, GST-PDX-1 T231D/S232E (CK2-phosphomimicking mutant) (mouse, UniProt P52946 1-284, T231D | S232E); assay: pull-down; 10 ug purified GST-tagged PDX-1 immobilised on GSH-sepharose in PBS-T (PBS pH 7.4, 1% Tween 20), incubated 2 h at 4 °C with 7.5 uL in vitro translated [35S]-methionine labeled PCIF1; SDS-PAGE, Coomassie and autoradiography; details: one partner purified
T1 construct: 'Full-length mouse PDX-1' is said of the FLAG construct; also called D/E mutant; source: bacterial expression vector pGEX-4T-1, purified
T1 sequence (P52946 whole entry T231D/S232E): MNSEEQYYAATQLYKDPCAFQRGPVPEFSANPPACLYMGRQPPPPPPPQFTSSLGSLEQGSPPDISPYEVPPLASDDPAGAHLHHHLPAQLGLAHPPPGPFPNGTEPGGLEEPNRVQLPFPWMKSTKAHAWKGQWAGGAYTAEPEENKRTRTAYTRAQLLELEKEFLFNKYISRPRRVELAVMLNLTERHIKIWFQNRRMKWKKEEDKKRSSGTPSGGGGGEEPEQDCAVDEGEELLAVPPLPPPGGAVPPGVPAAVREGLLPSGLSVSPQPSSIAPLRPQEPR

## PDX-1 (from UniProt P52946) 10 µM CX-4945, 5 mM glucose
[1]; 5 mM glucose
  percent of reference: weaker; reference 100

## PDX-1 (from UniProt P52946) GST-PDX-1 T231D/S232E
[2]; reference: GST-PDX-1 T231A/S232A
  fold change: 1.5
[2]; reference: GST-PDX-1 wild type
  fold change: 1.5

## PDX-1 (from UniProt P52946) 10 µM CX-4945, 25 mM glucose
[1]; 25 mM glucose
  percent of reference: weaker; reference 100

B1: PCIF1 (human), in vitro translated and [35S]-methionine labeled, from pET28a-PCIF-1 (natural protein, UniProt O43791 1-374, looked up)
chain: MSRVPSPPPPAEMSSGPVAESWCYTQIKVVKFSYMWTINNFSFCREEMGEVIKSSTFSSGANDKLKWCLRVNPKGLDEESKDYLSLYLLLVSCPKSEVRAKFKFSILNAKGEETKAMESQRAYRFVQGKDWGFKKFIRRDFLLDEANGLLPDDKLTLFCEVSVVQDSVNISGQNTMNMVKVPECRLADELGGLWENSRFTDCCLCVAGQEFQAHKAILAARSPVFSAMFEHEMEESKKNRVEINDVEPEVFKEMMCFIYTGKAPNLDKMADDLLAAADKYALERLKVMCEDALCSNLSVENAAEILILADLHSADQLKTQAVDFINYHASDVLETSGWKSMVVSHPHLVAEAYRSLASAQCPFLGPPRKRLKQS
modifications: [35S]-methionine labeled
notes: PCIF1 / SPOP, human cDNA cloned into the BamH1/Xho1 sites of pET28a; wild-type form; The tags are inferred from the vector and cloning sites; also called SPOP; source: in vitro translated (Promega) from pET28a-PCIF-1
[3]
  fold binding against wild-type or the AA mutant: 1.5 fold
